Experimental findings from publication PMC10244618 are described below.

B1: NF2 (merlin) isoform 7, human, full length (507 aa, lacks exons 2-3 = isoform-1 residues 39-121; exon-16 C-terminus), P35240-4 (parent)
chain: MAGAIASRMSFSSLKRKQPKTFTVRIVTMDAEMEFNCEVKKQILDEKIYCPPEASVLLASYAVQAKYGDYDPSVHKRGFLAQEELLPKRVINLYQMTPEMWEERITAWYAEHRGRARDEAEMEYLKIAQDLEMYGVNYFAIRNKKGTELLLGVDALGLHIYDPENRLTPKISFPWNEIRNISYSDKEFTIKPLDKKIDVFKFNSSKLRVNKLILQLCIGNHDLFMRRRKADSLEVQQMKAQAREEKARKQMERQRLAREKQMREEAERTRDELERRLLQMKEEATMANEALMRSEETADLLAEKAQITEEEAKLLAQKAAEAEQEMQRIKATAIRTEEEKRLMEQKVLEAEVLALKMAEESERRAKEADQLKQDLQEAREAERRAKQKLLEIATKPTYPPMNPIPAPLPPDIPSFNLIGDSLSFDFKDTDMKRLSMEIEKEKVEYMEKSKHLQEQLNELKTEIEALKLKERETALDILHNENSDRGGSSKHNTIKKPQAQGRRPICI

Variants of B1 are the subject of this assay. The assay can be described thus: reverse yeast two-hybrid deep mutational scan (rY2H-seq): NF2 isoform 7 mutant library as bait mated with wild-type prey strains; selection on medium lacking adenine for non-interacting pairs; NextSeq paired-end sequencing; enrichment vs …. To be noted: yeast diploids after mating (RBait_S3 x RPrey_S3), 30 °C, selection for reporter genes on NB agar, HIGHER = WEAKER BINDING (the opposite of display enrichments): higher = stronger loss of interaction: reverse Y2H selects yeast in which bait and prey do NOT interact (growth without adenine), so a …, hits-only table, scale: rY2H score, numbering: uniprot, sequence starts at 1. A general note: A reporter such as luciferase makes a cellular process visible.

Where [1] appears, read: with EMILIN1 (elastin microfibril interfacer 1), Q9Y6C2, human ABL2 co-expressed as the kinase-dead K35M mutant ….
Setting [2] is: with NF2 C-terminal domain (wild type; homomeric NF2-NF2 interaction), P35240, human ABL2 co-expressed as the kinase-dead K35M mutant …, partner unresolved.
[3] abbreviates: with PIK3R3 (phosphatidylinositol 3-kinase regulatory subunit gamma), Q92569, human tyrosine kinase ABL2 co-expressed as the active kinase ….
Setting [4] is: with KDM1A (lysine-specific histone demethylase 1A; the table's label AOF2 is a gene synonym of KDM1A), O60341, human tyrosine kinase ABL2 co-expressed as the active kinase ….
Where [5] appears, read: with EMILIN1 (elastin microfibril interfacer 1), Q9Y6C2, human tyrosine kinase ABL2 co-expressed as the active kinase ….
Setting [6] is: with KDM1A (lysine-specific histone demethylase 1A; the table's label AOF2 is a gene synonym of KDM1A), O60341, human ABL2 co-expressed as the kinase-dead K35M mutant ….

Values joined by “and” are separate entries in the source; they are usually repeats but may differ in a detail not shown here. Equal entries are not always repeated.

Turning to G114A, the enrichment by setting is: under setting [1], 7.29; under setting [2], 2.02; under setting [3], 3.53.
G157A: the enrichment is, setting by setting: under setting [1], 6.42; under setting [4], 5.01; under setting [2], 2.36 and 4.41.
For the variant G157L, the enrichment was 1.8 and 2.26 under setting [1]; 7.41 and 6.52 under setting [5]; 2.15 and 1.62 under setting [6]; 10.1 and 8.48 under setting [4]; 1.76 under setting [2].
For the variant N165L, the enrichment was 3.15 and 2.54 under setting [1]; 3.7 under setting [5]; 6 and 7.17 under setting [6]; 1.81 under setting [4]; 2.17 and 4.23 under setting [2]; 8.43 under setting [3].
As to N165A, the enrichment runs as follows: under setting [1], 3.8 and 4.08; under setting [5], 5.59 and 4.51; under setting [6], 5.23 and 4.34; under setting [4], 11.8; under setting [2], 3.7 and 6.3.
Consider N165E, for which the enrichment was 5.14 and 5.74 under setting [1]; 3.48 and 2.42 under setting [5]; 11.1 and 8.25 under setting [6]; 4.76 and 3.86 under setting [4]; 5.73 under setting [2]; 7.65 and 9.27 under setting [3].
Turning to A319K, the enrichment under setting [1] is 3.24, the enrichment under setting [5] is 1.77 and the enrichment under setting [6] amounted to 7.16.
Consider A319E, for which the enrichment was 2.5 under setting [1]; 5.2 and 4.57 under setting [5]; 5.63 under setting [4]; 1.39 and 4.04 under setting [2]; 4.37 under setting [3].
As for R384A, the enrichment is, setting by setting: under setting [1], 2.36; under setting [2], 2.38.
For the variant G219E, the enrichment under setting [1] was determined as 1.55.
Consider N176L, for which the enrichment under setting [1] worked out at 7.14, the enrichment under setting [5] amounted to 1.82, the enrichment under setting [2] was determined as 10.6 and the enrichment under setting [3] was 1.81.
Regarding L390W, the enrichment under setting [1] stood at 1.53.
For P396L, the enrichment is, setting by setting: under setting [1], 3.03; under setting [5], 2.65; under setting [6], 2.88.
Take P396A: the enrichment is 1.61 and 2.83 under setting [1]; 4.55 under setting [4]; 1.66 under setting [3].
Regarding R364E, the enrichment runs as follows: under setting [1], 1.5; under setting [5], 5.32; under setting [2], 2.76.
As for N402L, the enrichment reads like this: under setting [5], 1.47; under setting [6], 1.53.
For the variant Q327Y, the enrichment under setting [1] is 2.5.
Same read-out and setting: the result for Q327K reads 1.55.
Still for that read-out and setting: the result for V352E reads 1.87.
Take P405E: the enrichment by setting is: under setting [1], 1.6; under setting [6], 2.38; under setting [2], 1.76; under setting [3], 1.85 and 3.91.
As to P405Q, the enrichment is 3.57 and 2.37 under setting [1]; 4.58 under setting [3].
With G486K, the enrichment under setting [1] worked out at 3.4, the enrichment under setting [2] amounted to 5.67 and the enrichment under setting [3] was determined as 10.3.
Regarding L57E, the enrichment under setting [1] worked out at 1.73.
As to K281A, under setting [1], the enrichment is 6.85.
Still for that read-out and setting: under K246L stands 3.03 and 1.45.
As for K246R, the enrichment is, setting by setting: under setting [1], 1.4; under setting [5], 1.64.
For K246A, the enrichment under setting [1] turned out to be 2.24.
As to P403R, the enrichment is, setting by setting: under setting [1], 5.14; under setting [5], 3.53; under setting [3], 3.96.
Turning to M292S, the enrichment runs as follows: under setting [1], 1.52; under setting [6], 1.74; under setting [2], 1.49; under setting [3], 1.46.
For M292A, under setting [1], the enrichment was determined as 6.8.
As for A385K, the enrichment is, setting by setting: under setting [1], 1.6; under setting [2], 3.03; under setting [3], 1.74.
As to A385L, the enrichment was 1.74 under setting [1]; 1.79 under setting [6]; 1.94 under setting [4]; 1.47 and 2.16 under setting [2].
E325L: the enrichment runs as follows: under setting [1], 2.13; under setting [6], 5.66; under setting [2], 3.02.
On to E344G, for which the enrichment was 6.34 and 11.1 under setting [1]; 10.3 under setting [6].
For P400A, under setting [1], the enrichment worked out at 2.14.
With K66A, the enrichment by setting is: under setting [1], 2.97; under setting [5], 3.9; under setting [6], 3.6; under setting [3], 5.98.
As to E360G, the enrichment runs as follows: under setting [1], 2.14; under setting [6], 1.54.
Consider S483A, for which the enrichment is, setting by setting: under setting [1], 2.27; under setting [5], 3.86 and 4.2; under setting [6], 2.24.
On to D484L, for which the enrichment stood at 2.38 under setting [1] and 4.48 under setting [4].
With F426A, the enrichment came to 1.63 under setting [5] and 3.99 under setting [6].
With L422K, the enrichment runs as follows: under setting [1], 3.21; under setting [6], 1.93.
For the variant Q261L, the enrichment under setting [1] was determined as 4.37.
On to L355K, for which the enrichment under setting [1] came out at 3.38.
Turning to P399E, the enrichment is 3.23 under setting [1]; 1.72 under setting [5]; 1.77 and 4.25 under setting [6]; 2.45 under setting [4]; 1.43 under setting [2].
As to L315E, the enrichment is 3.8 under setting [1]; 2.62 and 6.59 under setting [6].
With R328A, the enrichment under setting [1] worked out at 2.29 and the enrichment under setting [6] worked out at 1.66.
On to R328E, for which the enrichment by setting is: under setting [1], 2.55; under setting [3], 3.12.
As to T397R, the enrichment runs as follows: under setting [1], 2.87 and 2.64; under setting [6], 2.17.
Turning to S172P, the enrichment reads like this: under setting [1], 1.73; under setting [6], 1.94; under setting [3], 2.04 and 2.73.
